The results in this text go back to patent CN1800373A (RADIOLOGY INST OF PLA MILITARY, dated 2006).

For assay [1], the target named is VEGFR-3/Ig重组蛋白 (R&D research system corp.) (human) (UniProt P35916). In words: ELISA, coated VEGFR-3/Fc 0.5 μg/mL, negative control.
For a further assay, the target named is 正常人IgG (北京中杉金桥有限公司). In words: ELISA, coated normal human IgG 0.5 μg/mL, negative control. (In an ELISA, binding on a coated surface is turned into a signal by an enzyme label.)
A further assay deals with T1, HEL细胞表面表达的VEGFR-3 (human, UniProt P35916 25-1363).
T1 construct: whole, on cells; On whole HEL cells in flow cytometry; in HEL cell lysate in the immunoblot; also called VEGFR-3多肽 (175kDa, 125kDa bands of HEL lysate)
In words: Western blot of HEL cell lysate (Fig. 4).

In assay [2] the target is VEGFR-3/Ig重组蛋白 (R&D research system corp.) (human) (UniProt P35916). In words: ELISA, coated VEGFR-3/Fc 0.5 μg/mL, supernatant of hybridoma BDD073.
Assay [3] deals with T2, VEGFR-3/Ig重组蛋白 (R&D research system corp.) (human, UniProt P35916 25-776).
T2 construct: Bought protein; also called VEGFR-3/Fc; VEGFR-3/IgG; not shown: Ig/Fc part of the bought fusion
T2 sequence (looked up): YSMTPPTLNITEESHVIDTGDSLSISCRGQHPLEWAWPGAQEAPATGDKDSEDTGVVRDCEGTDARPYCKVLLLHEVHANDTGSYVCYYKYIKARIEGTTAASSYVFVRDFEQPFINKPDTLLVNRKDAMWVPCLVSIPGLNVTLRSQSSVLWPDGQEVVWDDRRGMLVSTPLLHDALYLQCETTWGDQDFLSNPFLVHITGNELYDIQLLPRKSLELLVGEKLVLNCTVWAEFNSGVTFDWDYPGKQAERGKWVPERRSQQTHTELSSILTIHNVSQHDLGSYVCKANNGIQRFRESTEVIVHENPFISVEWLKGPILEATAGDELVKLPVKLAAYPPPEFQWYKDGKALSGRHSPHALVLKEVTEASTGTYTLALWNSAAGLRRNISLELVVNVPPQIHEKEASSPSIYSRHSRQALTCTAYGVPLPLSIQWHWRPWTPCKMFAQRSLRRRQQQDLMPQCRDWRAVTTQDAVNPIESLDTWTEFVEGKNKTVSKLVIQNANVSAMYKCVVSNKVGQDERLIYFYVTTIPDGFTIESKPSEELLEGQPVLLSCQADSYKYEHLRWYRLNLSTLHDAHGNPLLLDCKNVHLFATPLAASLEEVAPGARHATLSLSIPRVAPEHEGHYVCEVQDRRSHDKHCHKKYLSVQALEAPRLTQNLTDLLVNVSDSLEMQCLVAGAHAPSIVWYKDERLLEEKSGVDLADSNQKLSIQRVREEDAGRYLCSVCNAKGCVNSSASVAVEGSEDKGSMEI
In words: ELISA-type assay, OD450; VEGFR-3/Fc 1 and 2 μg/mL mixed with 20 μg/mL GST-VEGF-D (Fig. 1).

For assay [4], the target named is VEGFR-3/Ig重组蛋白 (R&D research system corp.) (human) (UniProt P35916). Briefly: ELISA, coated VEGFR-3/Fc 0.5 μg/mL, scFv at 13 μg/mL.
The target is the same in assay [5]. In words: ELISA, coated VEGFR-3/Fc 0.5 μg/mL, scFv at 6.5 μg/mL.
Assay [6] shares this target. Briefly: ELISA, coated VEGFR-3/Fc 0.5 μg/mL, scFv at 65 μg/mL.

In the case of 正常鼠血清(1∶1000), the OD 450 turned out to be 0.05 OD450 in assay [1] and 0.064 OD450 with 正常人IgG (北京中杉金桥有限公司).

B1: 抗人VEGFR-3的单克隆抗体ABDD073 (antibody, mouse IgG2a, V domains shown)
VH: QVQLQESGGGLVRPRGSLKLSCAASGFTFNTYAMNWVRQAPGKGLEWIARIRNKSNNYATYYANSVKDRFTISRGDSQSMLYLQMNNLKTEDTAMYYCVRDGYSLVHWGHGTLVTVS
VL: DIVLTQSPASLAVSLGQRATISCRASKSVSTFGYSYMHWYQQKPGQPPKLLIYLASNLESGVPARFSGSGSGTDFTLNIHPVEEEDAATYYCQHSRELMYTFGGGTKLEIKR
notes: The 132-residue entry was amplified with a primer that starts at ATG, so it may hold a leader; also called BDD073上清; monoclonal antibody of hybridoma BDD073 CGMCC No.1537
On to B1, for which the binding result with HEL细胞表面表达的VEGFR-3 is reported as “binds”. The OD 450 in assay [2] stood at 0.889 OD450.

B2: 重组人GST-VEGF-D (ligand, human, UniProt O43915 89-205, looked up)
chain: FAATFYDIETLKVIDEEWQRTQCSPRETCVEVASELGKSTNTFFKPPCVNVFRCGGCCNEESLICMNTSTSYISKQLFEISVPLTSVPELVPVKVANHTGCKCLPTAPRHPYSIIRR
notes: domain: VHD; Expressed in E. coli BL21(DE3), 38 kD, purified on a GST column; not shown: GST tag encoded by vector pGEX-5X-1 (Amersham)
On to B2, for which, in assay [3], the binding result is “binds”.

B3: 可溶性抗VEGFR-3单链抗体VL-linker-VH (scFv, not shown: large carriers)
scFv: DIVLTQSPASLAVSLGQRATISCRASKSVSTFGYSYMHWYQQKPGQPPKLLIYLASNLESGVPARFSGSGSGTDFTLNIHPVEEEDAATYYCQHSRELMYTFGGGTKLEIKRGGGGSGGGGSGGSQVQLQESGGGLVRPRGSLKLSCAASGFTFNTYAMNWVRQAPGKGLEWIARIRNKSNNYATYYANSVKDRFTISRGDSQSMLYLQMNNLKTEDTAMYYCVRDGYSLVHWGHGTLVTVS
Turning to B3, the OD 450 in assay [4] was determined as 0.73 OD450; in assay [5] it was 0.515 OD450; in assay [6] it was 1.01 OD450.
